In article PMC3458545 (Nucleic Acids Research, 2012):

T1: RecQL4_N54 (human (Homo sapiens), UniProt O94761 1-54)
T1 sequence: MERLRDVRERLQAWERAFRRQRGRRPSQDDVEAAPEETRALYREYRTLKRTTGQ


What was measured:
[1] = target: GST-TopBP1 (a.a. 1233–1522) (human, UniProt Q92547 1233-1522); assay: SPR
[2] = target: T1, RecQL4_N54; assay: EMSA

Sequence of GST-TopBP1 (a.a. 1233–1522) (Q92547 1233-1522): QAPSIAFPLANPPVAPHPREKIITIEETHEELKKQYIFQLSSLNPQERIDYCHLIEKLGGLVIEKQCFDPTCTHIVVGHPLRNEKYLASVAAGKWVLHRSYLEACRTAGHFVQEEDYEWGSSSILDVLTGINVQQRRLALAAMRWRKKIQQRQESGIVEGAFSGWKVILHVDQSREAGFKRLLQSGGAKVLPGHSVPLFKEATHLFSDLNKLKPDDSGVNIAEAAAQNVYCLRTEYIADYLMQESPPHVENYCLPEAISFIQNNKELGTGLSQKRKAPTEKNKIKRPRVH

Row | Binder | Kd [1] [µM] | binding result [2]
1 | RecQL4_N54 (domain or fragment, human) GSMERLRDVRERLQAWERAFRRQRGRRPSQDDVEAAPEETRALYREYRTLKRTTGQ | ~70 | 
2 | S4-M3 Y (mixed) DNA 1: ATCCTCTCTAGAGTCAAGGTCGGAGTTAGAGTAG DNA 2: CTACTCTAACTCCGACCGCTTGCATGCCTGCAGG |  | binds
3 | M2-M4 Y (mixed) DNA 1: GCTTGCATGCCTGCAGGCCAGCCTCAATCTCATC DNA 2: ATCCTCTCTAGAGTCGACCTGCAGGCATGCAAGC |  | binds
